Assay results as given in the nanobody polyreactivity screen of Harvey et al. (2022).

assay: yeast display, Sf9 membrane polyspecificity reagent, FACS + sequencing; frameworks hold sequencing errors
In short: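 Polyreactivity labels are assigned by the sorting gate from which each nanobody was recovered. The gates were low and high (top ~1%), set on anti-HA fluorescence for expression and streptavidin fluorescence for reagent binding. Before sorting, galactose-induced (36–48 hours) yeast display cells were stained for 1 hour at 4 °C with 10% biotinylated, detergent-solubilized Sf9 membrane reagent.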

Sequence	polyreactivity (PSR sort gate)
QVQLVESWGGLVQAGGSLRLSCAASGYISNAMGWYRQAPGKERELVAVITRGGSTNYADSVKGRFTISRDNAKNTVYLQMNSLKPEDTAVYYCAKDVPYRRVRSEYWGQGTQVTVSS	low polyreactivity
QVQLVESWGGLVQAGGTLRLSCAASGSTFTLNCMGWYRQAPGKERELVASITWSGGSTYYADSVKGRFTISRDNAKNTVYLQMNSLKPEDTAVYYCADDEKLYITGYDYWGQGTQVTVSS	low polyreactivity
QVQLVESWGGLVQEGGSLRLSCAASGSTFGPYAMGWYRQAPGKERELVAAITESGDSTYYADSVKGRFTISRDNAKNSVYLQMNSLKPEDTAVYYCAATRGSSEYYYWGQGTQVTVSS	low polyreactivity
QVQLVESWGGLVQSGGSLRLSCAASGFTFGHNAMGWYIQAPGKERELVAAIDTSGGSTYYADSVKGRFTISRDNEKNTVYLKMNSLKPEDTAVYYCAAFSASYGGYDYWGQGTQVTVSS	high polyreactivity
QVQLVESWGGLVQSGGSLRLSCAASGSIFSFYPMGWYRQAPGKERELVAAISSGGSTYYADSVKGRFTISRDNAKNTVYLQMNSLKPEDTAVYYCAADQHIRVSWYLQMYYWGQGTQVTVSS	low polyreactivity
QVQLVESWGGVVQAGGSLRLSCAASGRIFQHYAMGWYRQAPGKERELVAAISWRGGSTYYADSVKGRFTISRDNAKNTVFLQMNSLKPEDTAVYYCAAGYRGRIPGFDYWGQGTQVTVSS	high polyreactivity
QVQLVESWGRLVQAGGSLRLSCAASGSTFTGNAMGWYRQAPGKERELVAVISSGASTNYADSVKGRFTISRDNAKNSVSLQMNSLKAEDSAVYYCAADSWDYDSRMDYWGQGTHVTVSS	low polyreactivity
QVQLVESWGVLVQAGGSLRLSCAASGSIFYYYVMGWYRQAPWKERELVAAISYGGGTNYADSVKERFTISRDNAKNTVYLQMISLKPEDTAVYYCNVVTYRRFDYWGQGTQVTVSS	low polyreactivity
QVQLVETCGGLDQAGVSLRLSCAASGIIFKTYAMGWYRQAPGKETEYVAPISVSGGGTYYADSVKGRFTISRDNAKNTVYLQMNSPKPEDTAVYYCAARSWYWRYYTLNPYDYWVQGTQVTVSS	high polyreactivity
QVQLVETGGGLFQAGGSLRISCAASGSTFYTYAMGWYRQSPGKERELVAAITRRGGRTYYADSVKGRFTISRDNAKNTVYLQMNSLKPEDTAVYYCAADSRTNGYDYWGQGTQVTVSS	high polyreactivity
QVQLVETGGGLVHAGGSLRLSCAASGFIFVVNAMGWYRQAPGKERELVAAITRNGGSTYYADSVKGRFSISRDNEKNTVYLQMNSLKPEDTAVYYCATYVRRAPSTFDVDYWGLGTQVTVSS	high polyreactivity
QVQLVETGGGLVHAGGSLRLSCAASGITFTTNTMGWYRQAPGKERELVAAISSTGGNTFYADSVKGRFTISRDNAKNTVYLQMNSLKPEDTAVYYCSYVPSNARGEYDSWGQGTQVTVSS	low polyreactivity
QVQLVETGGGLVKAGGSLRLSCGASGFIFTYNAMGWYRQAPGKERELVAAISGSGGRTYYADSVKGRFTISRDNAKNTVYLQMNSLKPEDTAVYYWNRDPKSLSYGSRGFGYWGLGTQVTVSS	high polyreactivity
QVQLVETGGGLVQAGASLRLSCAASGRTFVYNAMGWYRQAPGKEREFVAAIDGGGDRTFYADSVKGRFTISRDYAKNTVYLQMNSLKPEDTAVYYCARDPGDTYYYSYPEGDYWGQGTQVTVSS	low polyreactivity
QVQLVETGGGLVQAGGRLRLSCAASGSTFGSYAMGWYRQAPGKERELVATITESDGTTYYADSVKGSFTISRDNAKNTVYLQMNSLKREDTAVYYCAANYSGDRKRYWPGDTDDYWGQGTQVTVSS	high polyreactivity
QVQLVETGGGLVQAGGSLGLSCDASGSTFLYVRGWYRQAPGKERELVAAISESGGSPYYADSVKGRFTISRDNAKNTVYLQMNSLKPEDTAVYYCAADLPSGLQYRYYRVDYWGQGTQVTVSS	low polyreactivity
QVQLVETGGGLVQAGGSLLLSSAASGIIIRYYGMGCYGQAPGTERELVARIRWTGGSTYSADSVKGRFTISRDNAKNTVYLQMNSLKPEDTAVYYCAADIWQYSRIANYHPFDYWGQGTQVTVSS	low polyreactivity
QVQLVETGGGLVQAGGSLRLSCAASARTFVNYAMGWYRQAPGKEREFVAAITNGGRTNYADSVKGRFTISRDNAKNTVYLQMNSLKQEDTAVYYCAARYRFGGIRRFNYWGQGTQVTVSS	high polyreactivity
QVQLVETGGGLVQAGGSLRLSCAASGCIITYYAMGWYRPAPGKERELVAAITASGSRTYYADSVKGRFTISRDNAKNTVYLQMNSLKPEDTAVYDCASDNWQWYPSTWYDYWGQGTQVTVSS	high polyreactivity
QVQLVETGGGLVQAGGSLRLSCAASGFIFEFYAMGWYRQAPGKERELVAAITGRGGSTYYADSVKGRFTISRDNAKNTVYLQMNSLKPEDTAVYYCAASIGGQVPGFGWYDYWGQGTQVTVSS	low polyreactivity
QVQLVETGGGLVQAGGSLRLSCAASGFIFGYNAMGWYRQAPGKERELVATISWSGGSTYYADSVKGRFTISRDNAKNTVYLQMNSLKPEDSAVYYCAAEGWERLGWVSWVTVDYWGQGTQVTVSS	low polyreactivity

Sequence	polyreactivity (PSR sort gate)
QVQLVETGGGLVQAGGSLRLSCAASGFTIWKYAMGWYRQAPGKERELVAAISLGGGRTYYADSVKGRFTISRDNANNTVYLQMNSLKPEDTAVYYCNAKIVSSVLYDYWGQGNQVTVSS	low polyreactivity
QVQLVETGGGLVQAGGSLRLSCAASGIIFSRYAMGWYRQAPGIERELVASITGRVGSTYYADSVKGRFTISRDNAKNTVYLQMNRLKPEDTAVYYCAADYGYKFDYWGQGTQVTVSA	low polyreactivity
QVQLVETGGGLVQAGGSLRLSCAASGITFFGYDIGWYRQAPGKERELVAAINSRGGNTYYADSVKGRFTISRDNAKYTVYLQMNSLKPEDTAVYYCAARRYYNRAYGYWGQGTQVTVSS	high polyreactivity
QVQLVETGGGLVQAGGSLRLSCAASGITFVYYAMGWYRQAPGKERELVPSISSADNTNYADSVKGRFTISRDNAKNTVYLQMNSLKPEDTAVYYCAADFCWHLRHDSTGGYWGQGTQVTVSS	low polyreactivity
QVQLVETGGGLVQAGGSLRLSCAASGITSRPYVMGWYRQAPGKERELVAAISLTGGRTYYADSVKGRFTISRDNAKNTVYLQMNSPKPEDTAVYYCAAARSPYKYSYWGQGTQVTVSS	high polyreactivity
QVQLVETGGGLVQAGGSLRLSCAASGLIFVSNAMGWYIQAPGKVRELVAAISKSVGRTYYADSVKGRFTISRDNEKNTVYLQMNSLQPEDTAVYYCAARSRVSPRYDYWGQGTQVTVSS	high polyreactivity
QVQLVETGGGLVQAGGSLRLSCAASGLIFYRYAMGWYRQAPGKERELVAVITRSGGNTNYADSVKGRFTISRDNAKNTVYLQMNSLKPEDTAVYYCATRGIWKKVPYYYWGQGTQVTVSS	high polyreactivity
QVQLVETGGGLVQAGGSLRLSCAASGLTFKYYTKGWYRQAPGKERELVASISWSGGSTYYADSVKGRFTISRDNAKNTVYLQMNSLKPEDTAVYYCARRGYWGPGALGGGGYYWGQGTQVTVSS	high polyreactivity
QVQLVETGGGLVQAGGSLRLSCAASGRIFGPYAMGWYRQAPGKERELVAAITWSGVSTYYADSVKGRFTISRDNAKNSVYLQMNSLKQEDTAVYYCAVDPRGHEGVRYNYWGQGTKVTVSS	low polyreactivity
QVQLVETGGGLVQAGGSLRLSCAASGRIFYLYAMGWYRQAPGKEWELVAAISSSGGSTYYADSVKGRFTISRDNAKTTVYLQMNSLKPEDTAVYYCNARRRTVPYRYDYWGQGTQVTVSS	high polyreactivity
QVQLVETGGGLVQAGGSLRLSCAASGRIFYYYAMGWYRQAPGKERELVAGIDSGDSTNYADSVKGRFTISRDNAKNTVYLQMNSLKPEDTAVYYCAALHYGVYFSYYPYYYWGQGTQVTVSS	low polyreactivity
QVQLVETGGGLVQAGGSLRLSCAASGRTFGHNDMGWSRQAPGKERELVATISSDGSTNYADSVKGRFTISRDNAKNTVYLQMNSLKPEDTAVYYCAKVYQYVEYDYWGQGTQVTVSS	low polyreactivity
QVQLVETGGGLVQAGGSLRLSCAASGRTFKGYAMGWYRQSPGKERELVAGISRGAGRTYYADSVKGRFTISRDNAKNTVYLQMNSLKPEDTEVYYCAAVPSYHSTSPFYYWGQGTQVTVSS	high polyreactivity
QVQLVETGGGLVQAGGSLRLSCAASGRTFLDYTMGWYRQAPGKERELVAAIRTSAGSTYYADSVKGRFTISRDNAKNTVYLQMNSLKPEDTAVYYCAKRQRGYFYEYYLYYSWGQGTQVTVSS	low polyreactivity
QVQLVETGGGLVQAGGSLRLSCAASGRTFYQYAMGWYRQAPGKERELVAGITFRGGSTNYADSVKGRFTISRDNAKNTVYLQMNSLKPEDTAVYYCAATVYGTVYKGRSQYEYGYWGQGTQVTVSS	high polyreactivity
QVQLVETGGGLVQAGGSLRLSCAASGSIFHPYGIGSYRQGPGKERELVAAITSSGGDTYYADSVKGRFTISRDNSKNTVYLQINSLKPEDTAVYYCAATGLPGYYAYDYWGQGTQVTVSS	low polyreactivity
QVQLVETGGGLVQAGGSLRLSCAASGSIFRYNAKGWYRQAPGKEREFVAAITRSGGSTYADSVKGRFTISRDNAKNTVSLQLNSLKPEDTAVYYCAATRLSRYEYWGQGTQVTVSS	low polyreactivity
QVQLVETGGGLVQAGGSLRLSCAASGSIFTNYVMGWYRQAPGKERELVAAINWSGGSTYYADSVKGRFTISRDNAKNTVYLQMNSLKQEDTAVYFCASESFSDGSPYNYWGQGPQVTVSS	low polyreactivity
QVQLVETGGGLVQAGGSLRLSCAASGSIFVYNAMGWYRQAPGKERELVAGITFIGGSTYYADSVKGRFTISRDNAKNTVFLQMNSLKPEDTAVYYCNADVAPGIFYGYDSWGQGTQVTVSS	low polyreactivity
QVQLVETGGGLVQAGGSLRLSCAASGSTFESNAMGWYRQAPGKERELVAAISRGGNTYYADSEKGRFTISRDNAKNTVYLQMNSLKPEDTAVYYCNVDRGNPVPPSEYWGQGTQVTVSS	low polyreactivity
